Reference: US20240327509A1, “HUMAN CXCLI6 ANTIBODIES AND THE USE THEREOF” (CELLUS,INC., priority 2021, published 2024)
Substitutions are numbered along the chain they refer to.

T1: Recombinant human CXCL16 (rhCXCL16) protein (human, UniProt Q9H2A7 30-118, limits assumed)
T1 construct: Bought recombinant protein (976-CX, R&D systems); also called CXCL16 antigen; 976-CX (R&D systems)
T1 sequence: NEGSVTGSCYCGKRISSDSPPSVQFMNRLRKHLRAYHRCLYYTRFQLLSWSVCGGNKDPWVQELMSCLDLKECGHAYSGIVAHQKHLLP

T2: Recombinant mouse CXCL16 antigen (mouse, UniProt Q8BSU2 27-114, limits assumed)
T2 construct: Bought recombinant protein (503-CX, R&D systems); also called 503-CX (R&D systems)
T2 sequence: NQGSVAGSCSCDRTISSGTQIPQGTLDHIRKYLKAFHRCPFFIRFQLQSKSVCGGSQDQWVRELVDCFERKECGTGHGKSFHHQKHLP

B1: HC3LC3 (antibody, human IgG1, kappa, V domains shown)
VH: EVQLVESGGGLVQPGGSLKLSCAASGFTFSNAVMNWVRQAPGKGLEWVGRIRTKPNNYATFYADSVKGRFTFSRDDSKNTAYLQMNILKTEDTAMYYCTAWTTEGIYWGQGTTVTVSS
VL: DIQMTQSPSSLSASVGDRVTITCKSSQSLLYSGNQKNYLAWYQQKPGQSPKLLIYWASTRQSGVPDRFSGSGSGTDFTLTISSLQAEDFATYYCQQYYDTPWTFGGGTKVEIKR
notes: Humanized variant; human IgG1 / kappa constant domains
B2: HC4LC3 (antibody, human IgG1, kappa, V domains shown)
VH: B1 VH with Q13K, K19R, G49A, A81L, I87S, M95V
VL: B1 VL
notes: as for B1
B3: HC1LC4 (antibody, human IgG1, kappa, V domains shown)
VH: QVQLVESGGGVVQPGGSLRLSCAASGFTFSNAVMNWVRQAPGKGLEWVARIRTKPNNYATFYADSVKGRFTFSRDNSKTMLYLQMNSLRAEDTAVYYCTAWTTEGIYWGQGTLVTVSS
VL: B1 VL with D66S, A86P, F89L, T91I, V110L, I112L
notes: as for B1
B4: HC3LC4 (antibody, human IgG1, kappa, V domains shown)
VH: B1 VH
VL: B1 VL with D66S, A86P, F89L, T91I, V110L, I112L
notes: as for B1
B5: HC1LC3 (antibody, human IgG1, kappa, V domains shown)
VH: B3 VH
VL: B1 VL
notes: as for B1
B6: HC4LC4 (antibody, human IgG1, kappa, V domains shown)
VH: B1 VH with Q13K, K19R, G49A, A81L, I87S, M95V
VL: B1 VL with D66S, A86P, F89L, T91I, V110L, I112L
notes: as for B1
B7: HC3LC2 (antibody, human IgG1, kappa, V domains shown)
VH: B1 VH
VL: DIVMTQSPSSLAVSLGETATINCKSSQSLLYSGNQKNYLAWYQQKPGQPPKLLIYWASTRQSGVPDRFTGSGAGTDFTLTISSVQAEDLAIYYCQQYYDTPWTFGGGTKVEIKR
notes: as for B1
B8: HC1LC1 (antibody, human IgG1, kappa, V domains shown)
VH: B3 VH
VL: B7 VL with S9D, L15A, A19V, P49S, T69S, A73S, L89V, I91V
notes: as for B1
B9: HC2LC4 (antibody, human IgG1, kappa, V domains shown)
VH: B1 VH with E1A, L20I, P41S, F72I, I87S, T113L
VL: B1 VL with D66S, A86P, F89L, T91I, V110L, I112L
notes: as for B1
B10: HC2LC2 (antibody, human IgG1, kappa, V domains shown)
VH: B1 VH with E1A, L20I, P41S, F72I, I87S, T113L
VL: B7 VL
notes: as for B1
B11: HC1LC2 (antibody, human IgG1, kappa, V domains shown)
VH: B3 VH
VL: B7 VL
notes: as for B1
B12: HC2LC3 (antibody, human IgG1, kappa, V domains shown)
VH: B1 VH with E1A, L20I, P41S, F72I, I87S, T113L
VL: B1 VL
notes: as for B1
B13: HC4LC2 (antibody, human IgG1, kappa, V domains shown)
VH: B1 VH with Q13K, K19R, G49A, A81L, I87S, M95V
VL: B7 VL
notes: as for B1
B14: HC3LC5 (antibody, human IgG1, kappa, V domains shown)
VH: B1 VH
VL: B7 VL with L15A, T18R, P49S, T69I, A73S, V84L, L89V, V110L, I112L
notes: as for B1
B15: HC3LC1 (antibody, human IgG1, kappa, V domains shown)
VH: B1 VH
VL: B7 VL with S9D, L15A, A19V, P49S, T69S, A73S, L89V, I91V
notes: as for B1
B16: HC2LC1 (antibody, human IgG1, kappa, V domains shown)
VH: B1 VH with E1A, L20I, P41S, F72I, I87S, T113L
VL: B7 VL with S9D, L15A, A19V, P49S, T69S, A73S, L89V, I91V
notes: as for B1
B17: HC1LC5 (antibody, human IgG1, kappa, V domains shown)
VH: B3 VH
VL: B7 VL with L15A, T18R, P49S, T69I, A73S, V84L, L89V, V110L, I112L
notes: as for B1
B18: HC2LC5 (antibody, human IgG1, kappa, V domains shown)
VH: B1 VH with E1A, L20I, P41S, F72I, I87S, T113L
VL: B7 VL with L15A, T18R, P49S, T69I, A73S, V84L, L89V, V110L, I112L
notes: as for B1
B19: HC4LC5 (antibody, human IgG1, kappa, V domains shown)
VH: B1 VH with Q13K, K19R, G49A, A81L, I87S, M95V
VL: B7 VL with L15A, T18R, P49S, T69I, A73S, V84L, L89V, V110L, I112L
notes: as for B1
B20: HC5LC4 (antibody, human IgG1, kappa, V domains shown)
VH: B1 VH with P41S, G49A, I87S, T113L
VL: B1 VL with D66S, A86P, F89L, T91I, V110L, I112L
notes: as for B1
B21: Chimeric antibody HC0LC0 (antibody, V domains shown)
VH: AVQLVESGGGLVQPKESLKISCAASGFTFSNAVMNWVRQAPGKGLEWVARIRTKPNNYATFYADSVKGRFTFSRDDSKSMVYLQMDNLKTEDTAMYYCTAWTTEGIYWGQGTLVTVSS
VL: B7 VL with L15A, A19V, P49S, T69I, A73S, V110L, I112L
notes: also called CLS-A1HC0LC0; variant antibody
B22: HC5LC1 (antibody, human IgG1, kappa, V domains shown)
VH: B1 VH with P41S, G49A, I87S, T113L
VL: B7 VL with S9D, L15A, A19V, P49S, T69S, A73S, L89V, I91V
notes: Humanized; human IgG1 / kappa constant domains; also called HCSLC1; humanized CXCL16 antibody HC5LC1
B23: HC4LC1 (antibody, human IgG1, kappa, V domains shown)
VH: B1 VH with Q13K, K19R, G49A, A81L, I87S, M95V
VL: B7 VL with S9D, L15A, A19V, P49S, T69S, A73S, L89V, I91V
notes: Humanized; human IgG1 / kappa constant domains; also called humanized CXCL16 antibody HC4LC1
B24: HC5LC3 (antibody, human IgG1, kappa, V domains shown)
VH: B1 VH with P41S, G49A, I87S, T113L
VL: B1 VL
notes: Humanized; human IgG1 / kappa constant domains; also called HCSLC3; humanized CXCL16 antibody HC5LC3

Target: T1, Recombinant human CXCL16 (rhCXCL16) …
Experiment: BLI (ForteBio), antibody captured on biosensor, rhCXCL16 in solution
Procedure: (§1) The binding characteristics of 25 CXCL16 antibodies were analyzed using the bio-light interferometry (ForteBio). All antibodies were diluted in freshly prepared running buffer. Antibodies were immobilized onto the surface of a series of biosensors using the capture methods at 0.3 μg/mL. Recombinant human CXCL16 (rhCXCL16) protein (100 nM) was passed over the surface to generate a binding response for 10 minutes. Binding data for the antibody and antigen interactions were collected at 25° C. on the biosensors. Then, the running buffer was passed for 10 minutes to dissociate them. The association constant (kₐ) and the dissociation constant (kₐ) were observed, and the equilibrium binding constant (KD) was calculated. […] R2: The value indicating how well the fit and experimental data correlate; X²: The measure of error between the experimental data and fitted line.

Binder | binding result
B1 | no binding (tested: 100 nM rhCXCL16)
B2 | no binding (tested: 100 nM rhCXCL16)
B3 | no binding (tested: 100 nM rhCXCL16)
B4 | no binding (tested: 100 nM rhCXCL16)
B5 | no binding (tested: 100 nM rhCXCL16)
B6 | no binding (tested: 100 nM rhCXCL16)
B7 | no binding (tested: 100 nM rhCXCL16)
B8 | no binding (tested: 100 nM rhCXCL16)
B9 | no binding (tested: 100 nM rhCXCL16)
B10 | no binding (tested: 100 nM rhCXCL16)
B11 | no binding (tested: 100 nM rhCXCL16)
B12 | no binding (tested: 100 nM rhCXCL16)
B13 | no binding (tested: 100 nM rhCXCL16)
B14 | no binding (tested: 100 nM rhCXCL16)
B15 | no binding (tested: 100 nM rhCXCL16)
B16 | no binding (tested: 100 nM rhCXCL16)
B17 | no binding (tested: 100 nM rhCXCL16)
B18 | no binding (tested: 100 nM rhCXCL16)
B19 | no binding (tested: 100 nM rhCXCL16)
B20 | no binding (tested: 100 nM rhCXCL16)

Target: T1, Recombinant human CXCL16 (rhCXCL16) …
Experiment: BLI (ForteBio), antibody captured on biosensor, rhCXCL16 in solution, 25 C
Procedure: as §1

Binder | Kd [nM] | koff [s⁻¹] | kon [M⁻¹ s⁻¹]
B21 | < 0.001 | < 1e-07 | 
B22 | 3.26 | 5.97e-05 | 18300
B23 | 1.09 | 1.9e-05 | 17400
B24 | 1.44 | 0.000635 | 

Target: T1, Recombinant human CXCL16 (rhCXCL16) …
Experiment: as above
Remark: another data set of the same source

Binder | Res@3.7 nM
B21 | 0.13
B22 | 0.08
B23 | 0.113
B24 | 0.078

Target: T2, Recombinant mouse CXCL16 antigen
Experiment: ELISA, recombinant mouse CXCL16 immobilized on the plate, HRP-labeled anti-human IgG detection, OD 450 nm
Procedure: To evaluate the cross-reactivity with mouse CXCL16 antigen, the same ELISA experiment was performed with recombinant mouse CXCL16 antigen (503-CX, R&D systems). The mouse CXCL16 antigen was immobilized onto 96-well plates by incubation for 2 hours at room temperature. Non-specific binding sites were blocked by incubating with 1% BSA in PBS overnight at 4° C. After coating, the plates were washed with PBS. Humanized CXCL16 antibodies at various concentration (0.00 1˜10 nM) were incubated with the immobilized antigen for 2 hours at room temperature. After binding, the plates were washed, incubated with HRP-labeled anti-human IgG antibody (W4031, Promega, USA) for 0.5 hours, and developed using the substrate solution (DY008B, R&D systems). The binding affinity of humanized antibodies was similar to that of IgG antibody.

Binder | binding result
B21 | no binding (tested: 1500 ng/mL)
